Test [1] deals with T1, thrombin (Homo sapiens (Human), UniProt P00734 315-363; P00734 364-622). The test is described as follows: calculated from kon and koff (equation 7).
Test [2] deals with T1, thrombin. As to the kind of experiment: progress curves of S-2238 hydrolysis by thrombin; kobs plotted against recombinant protein concentration.
In test [3] the target is T1, thrombin. As to the kind of experiment: enzyme kinetics, S-2238 hydrolysis by thrombin 0.1 nM; apparent Km from Lineweaver-Burk plots against inhibitor concentration; competing inhibition.
Test [4] addresses T1, thrombin. The test is described as follows: enzyme kinetics, S-2238 hydrolysis by thrombin; Morrison tight binding equation.
Test [5] addresses T1, thrombin. The test is described as follows: enzyme kinetics, S-2238 hydrolysis by thrombin; nonlinear regression for competing enzyme inhibition.
The target of test [6] is T1, thrombin. The test is described as follows: cell-based or functional assay.

B1: Recombinant protein (SEQ ID NO: 1), modified from sculptin of the tick Amblyomma cajennense (other)
chain: GKPQGHPHDALEARSDAVHTAVPKMPKGGHGGFEPIPIDYDERALEARSDAVHTAVPKMPKGGLGGFEPIPIDYDERALEARSDAVHTAVPKMPKGGHGGFEPIPIDYDERALEARSDAVHTAVPKMPKGGHGGFEPIPIDYDERALHALEHHHHHH
notes: Expressed in E. coli BL21(DE3) from pET28a, without signal peptide and with a C-terminal polyhistidine tail; Mass 16990.90 Da by MALDI-TOF; also called Scpt; preserved recombinant protein
Turning to B1, the Ki with thrombin [1] was 0.0161 nM; with thrombin [3], 0.0185 nM; with thrombin [4], 0.0195 nM; with thrombin [5], 0.0181 nM. Also, the off-rate constant (koff) with thrombin [2] was 0.00065 s⁻¹. For the same molecule, the kon in the test with thrombin [2] is 4.04e+07 M⁻¹ s⁻¹. Further, the “IC50 of thrombin inhibition (hydrolysis of S-2238 by thrombin 0.1 nM)” value in the test with thrombin [6] came out at 0.0866 nM.

Turning to GKPQGHPHDALEARSDAVHTAVPKMPKGGHGGFEPIPIDYDERALEAR [Recombinant protein fragment of HPLC peak H1 generated by factor Xa (SEQ ID NO: 10)], the “thrombin inhibition activity retained, relative to non-hydrolyzed recombinant protein (S-2238 hydrolysis, thrombin 0.1 nM, fragment 100 pM)” value with thrombin [6] is ~50 % of preserved recombinant protein.

The record behind these values is patent US20230151079A1 (FUNDA O BUTANTAN, published 2023).
